From paper PMC8630228
Values joined by “and” are separate entries in the source; they are usually repeats but may differ in a detail not shown here. Equal values may be shown once.

Target: precursor δ-latroinsectotoxin (full-length precursor δ-LIT) (Latrodectus tredecimguttatus)
Assay: cryo-EM, reference-free 2D classification of particles; full-length δ-LIT at 0.4 mg/ml on holey carbon grids; particles sorted into monomer, dimer, trimer and tetramer classes

Substance: precursor δ-latroinsectotoxin (full-length precursor δ-LIT) (natural protein)
- percent of particles that are dimers: 50%
- percent of particles that are tetramers: 2.5%
- percent of particles that are trimers: 2.5%
- stoichiometry N: 2 and 3 and 4
